Reference: paper PMC10047360

Assay: Western blot, mature upper band, B3GnT2-/- HEK293T
Settings: glycan lost; control: wild-type LRP6

B1: LRP6: N1039Q (protein)
parent chain: MGAVLRSLLACSFCVLLRAAPLLLYANRRDLRLVDATNGKENATIVVGGLEDAAAVDFVFSHGLIYWSDVSEEAIKRTEFNKTESVQNVVVSGLLSPDGLACDWLGEKLYWTDSETNRIEVSNLDGSLRKVLFWQELDQPRAIALDPSSGFMYWTDWGEVPKIERAGMDGSSRFIIINSEIYWPNGLTLDYEEQKLYWADAKLNFIHKSNLDGTNRQAVVKGSLPHPFALTLFEDILYWTDWSTHSILACNKYTGEGLREIHSDIFSPMDIHAFSQQRQPNATNPCGIDNGGCSHLCLMSPVKPFYQCACPTGVKLLENGKTCKDGATELLLLARRTDLRRISLDTPDFTDIVLQLEDIRHAIAIDYDPVEGYIYWTDDEVRAIRRSFIDGSGSQFVVTAQIAHPDGIAVDWVARNLYWTDTGTDRIEVTRLNGTMRKILISEDLEEPRAIVLDPMVGYMYWTDWGEIPKIERAALDGSDRVVLVNTSLGWPNGLALDYDEGKIYWGDAKTDKIEVMNTDGTGRRVLVEDKIPHIFGFTLLGDYVYWTDWQRRSIERVHKRSAEREVIIDQLPDLMGLKATNVHRVIGSNPCAEENGGCSHLCLYRPQGLRCACPIGFELISDMKTCIVPEAFLLFSRRADIRRISLETNNNNVAIPLTGVKEASALDFDVTDNRIYWTDISLKTISRAFMNGSALEHVVEFGLDYPEGMAVDWLGKNLYWADTGTNRIEVSKLDGQHRQVLVWKDLDSPRALALDPAEGFMYWTEWGGKPKIDRAAMDGSERTTLVPNVGRANGLTIDYAKRRLYWTDLDTNLIESSNMLGLNREVIADDLPHPFGLTQYQDYIYWTDWSRRSIERANKTSGQNRTIIQGHLDYVMDILVFHSSRQSGWNECASSNGHCSHLCLAVPVGGFVCGCPAHYSLNADNRTCSAPTTFLLFSQKSAINRMVIDEQQSPDIILPIHSLRNVRAIDYDPLDKQLYWIDSRQNMIRKAQEDGSQGFTVVVSSVPSQNLEIQPYDLSIDIYSRYIYWTCEATNVINVTRLDGRSVGVVLKGEQDRPRAVVVNPEKGYMYFTNLQERSPKIERAALDGTEREVLFFSGLSKPIALALDSRLGKLFWADSDLRRIESSDLSGANRIVLEDSNILQPVGLTVFENWLYWIDKQQQMIEKIDMTGREGRTKVQARIAQLSDIHAVKELNLQEYRQHPCAQDNGGCSHICLVKGDGTTRCSCPMHLVLLQDELSCGEPPTCSPQQFTCFTGEIDCIPVAWRCDGFTECEDHSDELNCPVCSESQFQCASGQCIDGALRCNGDANCQDKSDEKNCEVLCLIDQFRCANGQCIGKHKKCDHNVDCSDKSDELDCYPTEEPAPQATNTVGSVIGVIVTIFVSGTVYFICQRMLCPRMKGDGETMTNDYVVHGPASVPLGYVPHPSSLSGSLPGMSRGKSMISSLSIMGGSSGPPYDRAHVTGASSSSSSSTKGTYFPAILNPPPSPATERSHYTMEFGYSSNSPSTHRSYSYRPYSYRHFAPPTTPCSTDVCDSDYAPSRRMTSVATAKGYTSDLNYDSEPVPPPPTPRSQYLSAEENYESCPPSPYTERSYSHHLYPPPPSPCTDSS
For B1, the localisation_or_trafficking was “no change”.

B2: LRP6: N692Q (protein)
parent chain: MGAVLRSLLACSFCVLLRAAPLLLYANRRDLRLVDATNGKENATIVVGGLEDAAAVDFVFSHGLIYWSDVSEEAIKRTEFNKTESVQNVVVSGLLSPDGLACDWLGEKLYWTDSETNRIEVSNLDGSLRKVLFWQELDQPRAIALDPSSGFMYWTDWGEVPKIERAGMDGSSRFIIINSEIYWPNGLTLDYEEQKLYWADAKLNFIHKSNLDGTNRQAVVKGSLPHPFALTLFEDILYWTDWSTHSILACNKYTGEGLREIHSDIFSPMDIHAFSQQRQPNATNPCGIDNGGCSHLCLMSPVKPFYQCACPTGVKLLENGKTCKDGATELLLLARRTDLRRISLDTPDFTDIVLQLEDIRHAIAIDYDPVEGYIYWTDDEVRAIRRSFIDGSGSQFVVTAQIAHPDGIAVDWVARNLYWTDTGTDRIEVTRLNGTMRKILISEDLEEPRAIVLDPMVGYMYWTDWGEIPKIERAALDGSDRVVLVNTSLGWPNGLALDYDEGKIYWGDAKTDKIEVMNTDGTGRRVLVEDKIPHIFGFTLLGDYVYWTDWQRRSIERVHKRSAEREVIIDQLPDLMGLKATNVHRVIGSNPCAEENGGCSHLCLYRPQGLRCACPIGFELISDMKTCIVPEAFLLFSRRADIRRISLETNNNNVAIPLTGVKEASALDFDVTDNRIYWTDISLKTISRAFMNGSALEHVVEFGLDYPEGMAVDWLGKNLYWADTGTNRIEVSKLDGQHRQVLVWKDLDSPRALALDPAEGFMYWTEWGGKPKIDRAAMDGSERTTLVPNVGRANGLTIDYAKRRLYWTDLDTNLIESSNMLGLNREVIADDLPHPFGLTQYQDYIYWTDWSRRSIERANKTSGQNRTIIQGHLDYVMDILVFHSSRQSGWNECASSNGHCSHLCLAVPVGGFVCGCPAHYSLNADNRTCSAPTTFLLFSQKSAINRMVIDEQQSPDIILPIHSLRNVRAIDYDPLDKQLYWIDSRQNMIRKAQEDGSQGFTVVVSSVPSQNLEIQPYDLSIDIYSRYIYWTCEATNVINVTRLDGRSVGVVLKGEQDRPRAVVVNPEKGYMYFTNLQERSPKIERAALDGTEREVLFFSGLSKPIALALDSRLGKLFWADSDLRRIESSDLSGANRIVLEDSNILQPVGLTVFENWLYWIDKQQQMIEKIDMTGREGRTKVQARIAQLSDIHAVKELNLQEYRQHPCAQDNGGCSHICLVKGDGTTRCSCPMHLVLLQDELSCGEPPTCSPQQFTCFTGEIDCIPVAWRCDGFTECEDHSDELNCPVCSESQFQCASGQCIDGALRCNGDANCQDKSDEKNCEVLCLIDQFRCANGQCIGKHKKCDHNVDCSDKSDELDCYPTEEPAPQATNTVGSVIGVIVTIFVSGTVYFICQRMLCPRMKGDGETMTNDYVVHGPASVPLGYVPHPSSLSGSLPGMSRGKSMISSLSIMGGSSGPPYDRAHVTGASSSSSSSTKGTYFPAILNPPPSPATERSHYTMEFGYSSNSPSTHRSYSYRPYSYRHFAPPTTPCSTDVCDSDYAPSRRMTSVATAKGYTSDLNYDSEPVPPPPTPRSQYLSAEENYESCPPSPYTERSYSHHLYPPPPSPCTDSS
For B2, the localisation_or_trafficking was “abolishes”.

B3: LRP6: N42Q (protein)
parent chain: MGAVLRSLLACSFCVLLRAAPLLLYANRRDLRLVDATNGKENATIVVGGLEDAAAVDFVFSHGLIYWSDVSEEAIKRTEFNKTESVQNVVVSGLLSPDGLACDWLGEKLYWTDSETNRIEVSNLDGSLRKVLFWQELDQPRAIALDPSSGFMYWTDWGEVPKIERAGMDGSSRFIIINSEIYWPNGLTLDYEEQKLYWADAKLNFIHKSNLDGTNRQAVVKGSLPHPFALTLFEDILYWTDWSTHSILACNKYTGEGLREIHSDIFSPMDIHAFSQQRQPNATNPCGIDNGGCSHLCLMSPVKPFYQCACPTGVKLLENGKTCKDGATELLLLARRTDLRRISLDTPDFTDIVLQLEDIRHAIAIDYDPVEGYIYWTDDEVRAIRRSFIDGSGSQFVVTAQIAHPDGIAVDWVARNLYWTDTGTDRIEVTRLNGTMRKILISEDLEEPRAIVLDPMVGYMYWTDWGEIPKIERAALDGSDRVVLVNTSLGWPNGLALDYDEGKIYWGDAKTDKIEVMNTDGTGRRVLVEDKIPHIFGFTLLGDYVYWTDWQRRSIERVHKRSAEREVIIDQLPDLMGLKATNVHRVIGSNPCAEENGGCSHLCLYRPQGLRCACPIGFELISDMKTCIVPEAFLLFSRRADIRRISLETNNNNVAIPLTGVKEASALDFDVTDNRIYWTDISLKTISRAFMNGSALEHVVEFGLDYPEGMAVDWLGKNLYWADTGTNRIEVSKLDGQHRQVLVWKDLDSPRALALDPAEGFMYWTEWGGKPKIDRAAMDGSERTTLVPNVGRANGLTIDYAKRRLYWTDLDTNLIESSNMLGLNREVIADDLPHPFGLTQYQDYIYWTDWSRRSIERANKTSGQNRTIIQGHLDYVMDILVFHSSRQSGWNECASSNGHCSHLCLAVPVGGFVCGCPAHYSLNADNRTCSAPTTFLLFSQKSAINRMVIDEQQSPDIILPIHSLRNVRAIDYDPLDKQLYWIDSRQNMIRKAQEDGSQGFTVVVSSVPSQNLEIQPYDLSIDIYSRYIYWTCEATNVINVTRLDGRSVGVVLKGEQDRPRAVVVNPEKGYMYFTNLQERSPKIERAALDGTEREVLFFSGLSKPIALALDSRLGKLFWADSDLRRIESSDLSGANRIVLEDSNILQPVGLTVFENWLYWIDKQQQMIEKIDMTGREGRTKVQARIAQLSDIHAVKELNLQEYRQHPCAQDNGGCSHICLVKGDGTTRCSCPMHLVLLQDELSCGEPPTCSPQQFTCFTGEIDCIPVAWRCDGFTECEDHSDELNCPVCSESQFQCASGQCIDGALRCNGDANCQDKSDEKNCEVLCLIDQFRCANGQCIGKHKKCDHNVDCSDKSDELDCYPTEEPAPQATNTVGSVIGVIVTIFVSGTVYFICQRMLCPRMKGDGETMTNDYVVHGPASVPLGYVPHPSSLSGSLPGMSRGKSMISSLSIMGGSSGPPYDRAHVTGASSSSSSSTKGTYFPAILNPPPSPATERSHYTMEFGYSSNSPSTHRSYSYRPYSYRHFAPPTTPCSTDVCDSDYAPSRRMTSVATAKGYTSDLNYDSEPVPPPPTPRSQYLSAEENYESCPPSPYTERSYSHHLYPPPPSPCTDSS
For B3, the localisation_or_trafficking was “no change”.

B4: LRP6: N81Q (protein)
parent chain: MGAVLRSLLACSFCVLLRAAPLLLYANRRDLRLVDATNGKENATIVVGGLEDAAAVDFVFSHGLIYWSDVSEEAIKRTEFNKTESVQNVVVSGLLSPDGLACDWLGEKLYWTDSETNRIEVSNLDGSLRKVLFWQELDQPRAIALDPSSGFMYWTDWGEVPKIERAGMDGSSRFIIINSEIYWPNGLTLDYEEQKLYWADAKLNFIHKSNLDGTNRQAVVKGSLPHPFALTLFEDILYWTDWSTHSILACNKYTGEGLREIHSDIFSPMDIHAFSQQRQPNATNPCGIDNGGCSHLCLMSPVKPFYQCACPTGVKLLENGKTCKDGATELLLLARRTDLRRISLDTPDFTDIVLQLEDIRHAIAIDYDPVEGYIYWTDDEVRAIRRSFIDGSGSQFVVTAQIAHPDGIAVDWVARNLYWTDTGTDRIEVTRLNGTMRKILISEDLEEPRAIVLDPMVGYMYWTDWGEIPKIERAALDGSDRVVLVNTSLGWPNGLALDYDEGKIYWGDAKTDKIEVMNTDGTGRRVLVEDKIPHIFGFTLLGDYVYWTDWQRRSIERVHKRSAEREVIIDQLPDLMGLKATNVHRVIGSNPCAEENGGCSHLCLYRPQGLRCACPIGFELISDMKTCIVPEAFLLFSRRADIRRISLETNNNNVAIPLTGVKEASALDFDVTDNRIYWTDISLKTISRAFMNGSALEHVVEFGLDYPEGMAVDWLGKNLYWADTGTNRIEVSKLDGQHRQVLVWKDLDSPRALALDPAEGFMYWTEWGGKPKIDRAAMDGSERTTLVPNVGRANGLTIDYAKRRLYWTDLDTNLIESSNMLGLNREVIADDLPHPFGLTQYQDYIYWTDWSRRSIERANKTSGQNRTIIQGHLDYVMDILVFHSSRQSGWNECASSNGHCSHLCLAVPVGGFVCGCPAHYSLNADNRTCSAPTTFLLFSQKSAINRMVIDEQQSPDIILPIHSLRNVRAIDYDPLDKQLYWIDSRQNMIRKAQEDGSQGFTVVVSSVPSQNLEIQPYDLSIDIYSRYIYWTCEATNVINVTRLDGRSVGVVLKGEQDRPRAVVVNPEKGYMYFTNLQERSPKIERAALDGTEREVLFFSGLSKPIALALDSRLGKLFWADSDLRRIESSDLSGANRIVLEDSNILQPVGLTVFENWLYWIDKQQQMIEKIDMTGREGRTKVQARIAQLSDIHAVKELNLQEYRQHPCAQDNGGCSHICLVKGDGTTRCSCPMHLVLLQDELSCGEPPTCSPQQFTCFTGEIDCIPVAWRCDGFTECEDHSDELNCPVCSESQFQCASGQCIDGALRCNGDANCQDKSDEKNCEVLCLIDQFRCANGQCIGKHKKCDHNVDCSDKSDELDCYPTEEPAPQATNTVGSVIGVIVTIFVSGTVYFICQRMLCPRMKGDGETMTNDYVVHGPASVPLGYVPHPSSLSGSLPGMSRGKSMISSLSIMGGSSGPPYDRAHVTGASSSSSSSTKGTYFPAILNPPPSPATERSHYTMEFGYSSNSPSTHRSYSYRPYSYRHFAPPTTPCSTDVCDSDYAPSRRMTSVATAKGYTSDLNYDSEPVPPPPTPRSQYLSAEENYESCPPSPYTERSYSHHLYPPPPSPCTDSS
With B4 the localisation_or_trafficking was “abolishes”.
